Results as given in patent US20220073619A1 (IMCHECK THERAPEUTICS, published 2022).
Like-named read-outs stand apart in the source and are kept apart here.

B1: Humanized 103.2 (hu103.2) F(ab′)2 fragment (other)
VH: QVQMQQSGAEVKKPGASVKVSCKASGYAFTSYLIHWIKQRPGQGLEWIGVINPRSGDSHYNEKFKDRVTMTADQSISTAYMELSRLRSDDTAVYYCARSDYGAYWGQGTLVTVSS
VL: EIVLTQSPATLSVSPGERATLSCRASQSISNNLHWYQQKPGQAPRLLIKYASQSAFGIPARFSGSGSGTEFTLTISSLQSEDFAVYFCQQSNSWPHTFGQGTKLEIK
B2: Chimeric 103.2 F(ab′)2 fragment (other)
VH: QVQMQQSGAEVVRPGTSVKVSCKASGYAFTSYLIHWIKQRPGQGLEWIGVINPRSGDSHYNEKFKDRTTLTADQSSSTAYMQLSSLTSDDSAVYFCARSDYGAYWGQGTLVTVSS
VL: DIVLTQSPVTLSVTPGDSVSLSCRASQSISNNLHWYRQKSHESPRLLIKYASQSIFGIPSRFSGSGSGTEFTLSINSVETEDFGIYFCQQSNSWPHTFGTGTKLELK

How the values were obtained:
[1] = molecular target: Human BTN3A, membrane displayed on cells (human PBMCs, Daudi cells, SKOV-3 cells) (human), O00481; experiment: cell-based or functional assay
[2] = molecular target: T1, Human BTN3A1 His-tagged antigen (Sino Biological Cat. No. 15973-H08H) (human, UniProt O00481 30-254); experiment: BLI OctetRed96, F(ab′)2 loaded on FAB2G (anti-human CH1) sensors, human BTN3A1 as analyte 1.87-60 nM, 1:1 model, 30 C
T1 construct: Bought recombinant protein; also called recombinant human BTN3A1-His; not shown: His tag
Protocol: All runs (including loading, equilibration, association/dipping of sensors into analyte, dissociation and regeneration) were performed in black 96-well plates (Greiner) at 30° C. with shaking 1000 rpm using an OctetRed96 (ForteBio). […] The association of antibody or fragments with various concentrations of human BTN3A1 (60, 30, 15, 7.5, 3.75 and 1.87 nM) was monitored for 300 s, and the dissociation was followed for typically 500 s in kinetic buffer. Fitting of the data and constant measurements were performed with the Octet Red system software (version 7.1) using the 1:1 model. A control with an irrelevant antibody was used in order to assess the absence of non-specific binding of the target protein.

[3] = molecular target: T1, Human BTN3A1 His-tagged antigen (Sino …); experiment: SPR Biacore T200, single cycle kinetics, BTN3A1-His captured on anti-His CM5 chip, F(ab′)2 as analyte, bivalent analyte model (ka 1), 25 C
Protocol: (§1) Human BTN3A1 His-tagged antigen (Sino Biological, Beijing, China) was diluted in running buffer to a final concentration of 0.4 μg/mL. At the start of each cycle, human BTN3A1-His was captured onto Fc2 of CM5 sensor chip pre-coupled using a His capture kit (GE Healthcare, Little Chalfont, UK) with standard amine chemistry at a flow rate of 10 μL/min. An immobilization level (RL) of ˜34 RU, 16 RU or 11 RU, the different theoretical values to obtain a RMax of ˜50 RU was used for the analytes Fab, F(ab′)₂ and IgG respectively. The surface was then allowed to stabilize. Single cycle kinetic data was obtained with the purified samples (Fab, F(ab′)₂ and IgG) at a flow rate of 40 μL/min to minimize any potential mass transfer effects. The signal from the reference channel Fc1 (no antigen capture) was subtracted from that of Fc2 to correct for differences in non-specific binding to the reference surface. The signal for human BTN3A1-His blank runs (no analyte) were subtracted to correct for differences in surface stability. The association phase for the five injections of increasing concentrations was monitored for 240 seconds each time and a single dissociation phase was measured for 1400 seconds following the last injection of analyte. Regeneration of the chip surface was conducted using two injections of 10 mM glycine-HCL pH 1.5 followed by a stabilization period of 240 seconds.

[4] = molecular target: T1, Human BTN3A1 His-tagged antigen (Sino …); experiment: SPR Biacore T200, single cycle kinetics, BTN3A1-His captured on anti-His CM5 chip, F(ab′)2 as analyte, bivalent analyte model (kd 1), 25 C
Protocol: as §1

[5] = molecular target: T1, Human BTN3A1 His-tagged antigen (Sino …); experiment: SPR Biacore T200, single cycle kinetics, BTN3A1-His captured on anti-His CM5 chip, F(ab′)2 as analyte, bivalent analyte model (kd 2), 25 C
Protocol: as §1

[6] = molecular target: T1, Human BTN3A1 His-tagged antigen (Sino …); experiment: SPR Biacore T200, single cycle kinetics, BTN3A1-His captured on anti-His CM5 chip, F(ab′)2 as analyte, bivalent analyte model (ka 1), 25 C; remark: listed apart in the source
Protocol: (§2) All single cycle kinetic experiments were run at 25° C. with HBS-P+ running buffer (pH 7.4) containing 0.1% BSA (GE Healthcare, Little Chalfont, UK).
(§3) Human BTN3A1 His-tagged antigen (Sino Biological, Beijing, China) was diluted in running buffer to a final concentration of 0.4 μg/mL. At the start of each cycle, BTN3A1-His was captured onto Fc2 of CM5 sensor chip pre-coupled using a His capture kit (GE Healthcare, Little Chalfont, UK) with standard amine chemistry at a flow rate of 10 μL/min. An immobilization level (RL) of ˜17 RU or 8 RU, the different theoretical values to obtain a RMax of ˜25 RU was used for the analytes Fab and F(ab′)₂ respectively. The surface was then allowed to stabilize. Single cycle kinetics data was obtained with the purified samples (Fab and F(ab′)₂)) at a flow rate of 40 μL/min to minimize any potential mass transfer effects. The signal from the reference channel Fc1 (no antigen capture) was subtracted from that of Fc2 to correct for differences in non-specific binding to the reference surface. […] The signal for BTN3A1-His blank runs (no analyte) were subtracted to correct for differences in surface stability. The association phase for the five injections of increasing concentrations was monitored for 240 seconds each time and a single dissociation phase was measured for 2000 seconds following the last injection of analyte. […]

[7] = molecular target: T1, Human BTN3A1 His-tagged antigen (Sino …); experiment: SPR Biacore T200, single cycle kinetics, BTN3A1-His captured on anti-His CM5 chip, F(ab′)2 as analyte, bivalent analyte model (kd 1), 25 C; remark: listed apart in the source
Protocol: as §2, §3

[8] = molecular target: T1, Human BTN3A1 His-tagged antigen (Sino …); experiment: SPR Biacore T200, single cycle kinetics, BTN3A1-His captured on anti-His CM5 chip, F(ab′)2 as analyte, bivalent analyte model (kd 2), 25 C; remark: listed apart in the source
Protocol: as §2, §3

T1 sequence (O00481 30-254 limits assumed): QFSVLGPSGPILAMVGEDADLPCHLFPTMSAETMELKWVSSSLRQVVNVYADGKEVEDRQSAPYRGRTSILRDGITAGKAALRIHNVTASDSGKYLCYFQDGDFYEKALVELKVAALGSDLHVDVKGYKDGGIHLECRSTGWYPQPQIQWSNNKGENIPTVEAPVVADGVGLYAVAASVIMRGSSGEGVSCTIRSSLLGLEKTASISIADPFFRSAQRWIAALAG

| Binder | % CD25+ of Vγ9Vδ2 T cells within PBMCs, 67 nM, 5 days [1] [%] | % CTV dilution of Vγ9Vδ2 T cells within PBMCs, 67 nM, 5 days [1] [%] | EC50 (nM) in Vγ9Vδ2 T cell degranulation assay (CD107) against Daudi [1] [nM] | EC50 (nM) in Vγ9Vδ2 T cell degranulation assay (CD107) against SKOV-3 [1] [nM] | Kd [2] [pM] | koff [2] [s⁻¹] | kon [2] [M⁻¹ s⁻¹] | kon [3] [M⁻¹ s⁻¹] | koff [4] [s⁻¹] | kd 2 [5] [s⁻¹] | % CD107+ of Vγ9Vδ2 T cells, co-culture with Daudi cells, fragment at 10 µg/mL [1] [%] | kon [6] [M⁻¹ s⁻¹] | koff [7] [s⁻¹] | kd 2 [8] [s⁻¹] |
| --- | --- | --- | --- | --- | --- | --- | --- | --- | --- | --- | --- | --- | --- | --- |
| B1 | 43.2 | 42 | 0.0005 | 0.0005 | 1230 | 0.000243 | 198000 | 689000 | 0.00162 | 35.9 | – | – | – | – |
| B2 | – | – | – | – | – | – | – | – | – | – | 40.8 | 213000 | 0.00112 | 34.1 |
